One data set deals with antithrombin III (AT3) (Homo sapiens, UniProt P01008 P01008:33-464). The data set is described as follows: FRET control without thrombin, no fluorescence change. As to conditions: tags: Haematologic Technologies Inc; label: 5'-6-FAM, 3'-Dabcyl; G4.
The target in data set [1] is T1, sulfated hirudin fragment 54-65 (HirF) (UniProt P01050 P01050:54-65, not fully specified).
T1 chain: GDFEEIPEEYLQ
The data set is described as above. Conditions: tags: Sigma-Aldrich; peptide with sulfated Tyr; label: 5'-6-FAM, 3'-Dabcyl; G4.

Data set [2] deals with T2, alpha-thrombin (Homo sapiens, UniProt P00734;P00734 P00734:328-363,P00734:364-622). The data set is described as follows: FRET quenching slightly larger than FQ-15Ap; Exosite II; not displaced by HirF or AHT.
Data set [3] has as its target T2, alpha-thrombin. Description: FP; anisotropy increased more than 30% at 1:1; 20 mM Tris-HCl pH 7.6, 50 mM NaCl, 5% glycerol.
In data set [4] the target is T2, alpha-thrombin. Description: FP; anisotropy bait complex; slowly displaced by AT3.

Chain of antithrombin III (AT3) (P01008 33-464, one chain of several): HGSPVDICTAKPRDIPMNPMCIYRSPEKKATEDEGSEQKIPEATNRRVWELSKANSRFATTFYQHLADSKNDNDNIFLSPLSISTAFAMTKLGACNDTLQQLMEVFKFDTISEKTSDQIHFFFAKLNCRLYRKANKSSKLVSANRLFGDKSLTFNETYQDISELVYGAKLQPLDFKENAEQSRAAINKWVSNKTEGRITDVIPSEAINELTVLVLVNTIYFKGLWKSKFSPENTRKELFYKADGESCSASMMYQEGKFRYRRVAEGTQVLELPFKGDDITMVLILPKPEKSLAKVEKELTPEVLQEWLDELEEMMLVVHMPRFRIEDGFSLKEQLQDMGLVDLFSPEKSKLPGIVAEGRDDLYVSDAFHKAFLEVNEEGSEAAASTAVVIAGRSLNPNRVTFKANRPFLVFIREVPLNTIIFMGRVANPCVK
Procedure for antithrombin III (AT3): Fluorescence measurements were performed on a Fluorolog-3 spectrofluorometer (Jobin Yvon Inc., Edison, N.J.). […] Slit widths were varied to yield the best signals. All measurements were carried out in a 100 μL cuvette. In the aptamer/thrombin binding experiments, a very small volume of α-thrombin at a high concentration was added to an aptamer solution in the cuvette to make a molar ratio of aptamer and thrombin 1:1, and the fluorescence signals were recorded before and after the addition. For protein-protein binding reaction, an aptamer/thrombin mixture at 1:1 molar ratio was placed in the cuvette, and small volumes of the second protein solution at high concentrations were added to the mixture to make the desired prey protein concentrations. All dilution effects caused by the addition of samples to the original solutions were corrected during data analysis. Anisotropy measurements were also done with Fluorolog-3 spectrofluorometer.
Bovine serum albumin (BSA) was used as a control protein for interaction with α-thrombin.

B1: FQ-15Ap (ssDNA)
DNA: GGTTGGTGTGGTTGG
In the case of B1, the binding result (with antithrombin III (AT3); in data set [1]) was “no binding” in each case.

B2: FQ-27Ap (ssDNA)
DNA: ACCCGTGGTAGGGTAGGATGGGGTGGT
As to B2, the binding result with alpha-thrombin [2] is given as “binds”.

B3: T-15Ap (ssDNA)
DNA: GGTTGGTGTGGTTGG
Consider B3, for which the binding result with alpha-thrombin [3] is on record as “binds”.

B4: T-27Ap (ssDNA)
DNA: ACCCGTGGTAGGGTAGGATGGGGTGGT
Take B4: the binding result in the data set with alpha-thrombin [4] is “binds”.

The values above are taken from US20090208936, “IDENTIFICATION OF MOLECULAR INTERACTIONS AND THERAPEUTIC USES THEREOF” (Univeristy of Florida Research Foundations Inc., published 2009).
